# Laboratory results published in patent publication US20240026407A1, “MODIFICATION OF SAPONINS” (GLAXOSMITHKLINE BIOLOGICALS SA, priority 2020, published 2024).
# Assays:
# [1] = Example 10: derhamnosylation of saponins in crude bark extract (50%) using WT and engineered rhamnosidases R1 to R5; type: biochemical, Quillaja saponaria; details: 7 h, 50% CBE, 35 degC; for % Right Peak: starting CBE 26; for % Left Peak: starting CBE 30; for % Middle Peak: starting CBE 44
# Method: Lyophilised powders from clarified cell lysate expressing glucosidases (from Example 8 WT glucosidase and engineered glucosidase polypeptides G1 to G5) and rhamnosidases (from Example 9 WT rhamnosidase and engineered rhamnosidase polypeptides R1 to R5) were dissolved in 200 mM sodium acetate aqueous solution at pH 5.8 to prepare the enzyme solutions at 4 fold the final reaction concentration as shown in Tables 19 and 20.
# Each rhamnosidase solution was combined with an equal volume of 200 mM sodium acetate aqueous solution at pH 5.8 and separately with an equal volume of 200 mM sodium acetate aqueous solution at pH 5.8 containing 2 mg/ml glucosidase G5. This is a sufficient loading of glucosidase to effect complete hydrolysis of the relevant glucose moiety within 4 hours.
# CBE was adjusted to pH of 6.0 to 6.2 with 2M sodium hydroxide and an equal volume added to the enzyme solution to prepare the reaction mix (i.e. 50% CBE concentration in reaction mix) and the concentration of glucosidase and/or rhamnosidase is shown in Tables 19 and 20. The reaction mix was heated to 35 degC for the time indicated in Tables 19 and 20, after which the reaction was quenched by addition of an equal volume of MeCN containing 2% acetic acid and shaken at room temperature for 10 mins prior to centrifugation (10 min, 4 degC) to remove particulates. Samples were analysed by UV HPLC using method of Experiment 4-4.
# The change in composition of the Left, Middle and Right peaks is shown in Tables 19 and 20. The composition changes by the action of the enzymes depending on the presence or absence of the partner enzyme. The extent of reaction is proportional to the enzyme concentration and the reaction time under these conditions. The tables show data for enzyme concentrations and the reaction times providing for equivalent extents of reaction. The improvement resulting from the mutations introduced for each variant is equal to the fold change in enzyme concentration×time (i.e. fold improvement=(enzyme concentration×time) for preceding variant÷(enzyme concentration×time) for later variant). A cumulative fold improvement over the original enzyme variant is calculated by the product of the individual fold improvements.
# [2] = Example 9: screening of rhamnosidase variants for derhamnosylation of saponins in crude bark extract; type: biochemical, Quillaja saponaria; details: 18 h, CBE 75% v/v, 100 mM Sodium acetate pH 5.8
# Method: Libraries of genetic variants encoding mutations in the wild type Kribbella flavida rhamnosidase (SEQ ID No. 1017) were prepared using molecular biology techniques, enzymes were prepared linked to a C-terminally located His-tag. Single monoclonal colonies were grown in 400 ul of expression medium and protein expressed. Cell pellets were lysed in 200 ul of the relevant buffer (Table 17).
# Lysate was diluted appropriately in the relevant buffer to allow a lysate loading of the indicated % loading (1% loading corresponds to use of 2 ul original lysate in a 200 ul reaction).
# Crude bark extract (CBE) obtained by aqueous extraction of Quillaja saponaria and containing at least 2.80 mg/ml QS-21 (by HPLC-UV) was adjusted to pH 6 by dropwise addition of 2M NaOH with stirring. The relevant concentration of the relevant glucosidase was added. The appropriate relative volume of pH 6 CBE (160 ul (for 80%) or 150 ul (for 75%)) was added to each well of the reaction plate. The reaction plate was sealed and incubated at the relevant temperature and time.
# The reaction plate was quenched by adding 200 uL of MeCN (2% AcOH, 1 mg/mL hexanophenone) to each well of the plates. The quenched reaction plate was re-sealed and incubated at 20 deg C. with shaking for 10 min. The reaction plate was then centrifuged (10 min, 4 degC).
# 200 uL was transferred from each well of the quenched plate to the corresponding wells of a fresh 96 well plate and sealed. The plate was analysed by UV HPLC with the method described in Example 4.
# Three key peaks of interest are apparent using this chromatography: Left Peak (retention time approximately 2.30-2.35 min) comprising mainly QS-17 family components; Middle Peak (retention time approximately 2.37-2.42 min) comprising mainly QS-18 family components and desglucosyl-QS-17 family components; and Right Peak (retention time approximately 2.44-2.50 min) comprising mainly QS-21 family components. Peak identity was supported by MS/MS.
# Enzyme activity is calculated as the % conversion of the Left Peak present in the crude bark extract: […]
# [3] = rhamnosidase 0.63 mg/ml + glucosidase G5 0.5 mg/ml
# [4] = rhamnosidase 0.63 mg/ml, no glucosidase
molecule,measurement,setting,value
"Variant R3: engineered rhamnosidase polypeptide, variant of Kribbella flavida rhamnosidase SEQ ID No. 1017 (protein, Seq ID No. 1017 with mutations A143P, L214M, K219G, Q921H, G357C) MSFPAAPARLRFEHRTDPGPVLGIGTATPRLSWQVPTAPDDYRQAGYEVEIARGDAAPEQYTVDSADQVLVPWPGTPLAARESATVRVRVRGDGDWSQWSDPATVEAGLLSADDWTARFVSPRENAGHEAPAPLIGGVIDLPPDIAQARLYATAHGIYEPTLNGTRVGDEQLAPGWTAYEQRLRYQTYDVTDLVAPGENRLELLVGNGWYRGRMGFHGGHSLYGDRLAVLAQLEVTTATGEVKVLASDGTWTTRETNVLADDLYDGQHVDLRRTLGEPGPVDVLDADLSLLVAPDGPPVRVTDVLPAKAVTTSPAGKTLVDFGQNVVGRLRLRVRGGAAGDEIVLRHAEVLEDGELCVRPLRTAKATDSFVLAGPDEVTLEPTLTFHGFRYAEITGVPDLRAEDVEAVVVGSDLRRTGWFESSHPLLDRFHENVVWGMRGNFLDVPTDCPQRDERLGWTGDIQVFSPTASFLFDTAGFLTNWLADLIAEQHKDGSVPFVVPDVLRQPGPATAAWGDAATIVPWVLYERTGDAGLLARQLPSMRAWVDRMAGLAGDDLLWVGGFQFGDWLDPTAPPDDPFRAKADPDVLATAHLARSAEVVALAAEVVGAGELAREYAELAARVRQAFAAEYTTGSGRVLSDAATNYALALQWALLPTEAQRKRAGERLADLVRTAGFRISTGFVGTPLMADALADSGHPDLAYRLLLETGCPSWLYAVTMDATTVWERWDSMLPDGSINPGQMTSFNHYALGAVADWMHRRVAGLAPGDPGYRRIVVDPLFTAHLTKASARHLTPYGEAAVAWSRSGGRVRLEVTVPVGARARVAVPGESAPVEVGHGTHEWTADDVYGETPPLPADATIRQLIDHEPSWTTLAAAATRTGIVADDAELAGRLERYLDHPATELVDAVSPRGFSPSAEALHAELDSVLGR",% change in Left Peak,[1]; [3],−38%
same,% change in Middle Peak,[1]; [3],−99%
same,% change in Right Peak,[1]; [3],311%
same,Cumulative Fold improvement in primary enzyme loading × time,[1]; [3],8
same,Fold improvement in primary enzyme loading × time,[1]; [3],2.0
same,% Right Peak,[1]; [3],81%
same,% Left Peak,[1]; [3],19%
same,% Middle Peak,[1]; [3],0%
same,% change in Left Peak,[1]; [4],−45%
same,% change in Middle Peak,[1]; [4],21%
same,% change in Right Peak,[1]; [4],116%
same,Cumulative Fold improvement in primary enzyme loading × time,[1]; [4],8
same,Fold improvement in primary enzyme loading × time,[1]; [4],2.0
same,% Right Peak,[1]; [4],30%
same,% Left Peak,[1]; [4],16%
same,% Middle Peak,[1]; [4],53%
same,% conversion (Right peak/Left Peak) (−neg control),"[2]; R3 round: 35 deg C, lysate 0.4% v/v",13.06%
same,Cumulative FIOP from WT,"[2]; R3 round: 35 deg C, lysate 0.4% v/v, estimate",9.4
same,Right Peak %,"[2]; R3 round: 35 deg C, lysate 0.4% v/v, negative control 26.60",29.45%
same,Left Peak %,"[2]; R3 round: 35 deg C, lysate 0.4% v/v, negative control 28.91",18.85%
same,Middle Peak %,"[2]; R3 round: 35 deg C, lysate 0.4% v/v, negative control 44.49",51.70%
same,% conversion (Right peak/Left Peak),"[2]; R3 round: 35 deg C, lysate 0.4% v/v, negative control 47.91",60.97%
same,FIOP (% area increase variant/pos control),"[2]; R3 round: 35 deg C, lysate 0.4% v/v, positive control R2",3.3
same,% conversion (Right peak/Left Peak) (−neg control),"[2]; R4 round: 35 deg C, lysate 0.125% v/v",2.16%
same,Right Peak %,"[2]; R4 round: 35 deg C, lysate 0.125% v/v, negative control 26.09",26.56%
same,Left Peak %,"[2]; R4 round: 35 deg C, lysate 0.125% v/v, negative control 29.62",27.65%
same,Middle Peak %,"[2]; R4 round: 35 deg C, lysate 0.125% v/v, negative control 44.29",45.79%
same,% conversion (Right peak/Left Peak),"[2]; R4 round: 35 deg C, lysate 0.125% v/v, negative control 46.84",49.00%
